Source: patent publication WO2017153426A1 (dated 2017)

Target: native TSLP (supernatant from stimulated human lung fibroblasts) (human, UniProt Q969D9 29-159, limits assumed)
Experiment: cell-based or functional assay

- Geometric Mean IC50, inhibition of TSLP-induced pSTAT5 in SW756 cells: 0.86 nM
B1: DOM30h-440-81/86 (other)
chain: DIQMTQSPSSLSASVGDRVTITCRASRPIRNWLDWYQQKPGKAPKLLIWGASHLQSGVPSRFSGSGSGTDFTLTISSLQPEDFATYYCVQIGEDPVTFGQGTKVEIK
